Source: patent US20060233785A1, “Immunointeractive molecules and uses thereof” (priority 2001, published 2006)

Tests used:
basophils = test: Basophil Activation Test; format: cell-based, human; conditions: non-latex allergic control subject N2
Experimental: FIG. 9 is a graphical representation of the basophil Activation Test on a latex allergic donor. Whole blood from a latex allergic, Hev b 6 sensitized subject was incubated with latex allergens. The cells were stained with FITC labelled anti-human IgE polyclonal antibodies and a PE labelled monoclonal anti-human CD63 antibody. Cells were analysed by flow cytometry defining basophils on the basis of scatter (A) and high IgE staining (B). The percentage of activated basophils expressing CD63 was determined (C).
The Basophil Activation Test was performed on whole blood from (A) non-latex allergic subject N2; (B) latex-allergic subject A7; (C) latex-allergic subject A8 and (D) latex-allergic subject A10. Antigens: latex glove extract (GE), hevein peptide (hevein), rHev b 6, mutant rHev b 6 (MU rHev b 6), sulphonated rHev b 6, (sul. rHev b 6), rHev b 5, KLH and house dust mite extract (HDM). All allergens were used at 10 μg/ml except for rHev b 6 and mutant rHev b 6 which were used at 0.1, 1 and 10 μg/ml. The cut-off for positive was set at the level of activated basophils after incubation in stimulation buffer alone (no antigen, horizontal line). A plus symbol (+) indicates antigen to which a subject has either a positive clinical history of allergy and/or a positive reading on an allergen-specific IgE ELISA.
A basophil activation assay based on flow cytometry was used to quantify the activation of basophils after incubation with various allergens. This assay was modified from Paris-Kohler A, Demoly P, Persi L, Lebel B, Bousquet J, Arnoux B. In vitro diagnosis of cypress pollen allergy by using cytofluorimetric analysis of basophils (Basotest). J Allergy Clin Immunol 2000; 105:339-45. Whole blood was collected in 6 ml heparinised vacutainers (Greiner). 100 μl aliquots were preincubated with stimulation buffer (20 mM Hepes, 133 mM NaCl, 5 mM KCl, 7 mM CaCl2, 3.5 mM MgCl2, 1 mg/ml BSA, 20 μl/ml heparin, pH 7.4) containing 2 ng/ml IL-3, for 10 min at 37° C., to increase the sensitivity of the assay. Samples were incubated for 20 min at 37° C. with 100 μl of stimulation buffer alone or stimulation buffer containing either rabbit anti-human IgE (Dako) at 1 in 500 dilution, 2 μM N-fMLP (Sigma, Mo, USA), crude allergen extracts, recombinant latex allergens or Keyhole Limpet Haemocyanin (KLH) (Sigma, Mo, USA). Basophil activation was stopped by incubating at 4° C. for 5 min. Normal goat serum (10 μl) was added to each tube to block non-specific binding of the detection antibody (goat anti-human IgE-FITC) and incubated for 10 min at 4° C. Samples were incubated with goat anti-human IgE-FITC (Caltag, Birmingham, Calif.) at a dilution of 1 in 2.5, and mouse anti-human CD63-R-Phycoerythrin (PE; Caltag, Birmingham, Calif.) at a dilution of 1 in 20, in a 20 μl volume of wash buffer (20 mM HEPES, 133 mM NaCl, 5 mM KCl, 0.27 mM EDTA, pH7.3). RBC were lysed by the addition of 2 ml FACS lysing solution (39 mM NH4Cl, 2.5 mM KHCO3, 0.2 mM EDTA) and incubation for 10 min at room temperature. Cells were centrifuged (250 g, 5 min at 4° C.), resuspended in 3 ml wash buffer, and centrifuged as before. Pellets were resuspended in 200 μl wash buffer, and analysed by flow cytometry (FACScalibur, Becton Dickinson) within 2 h of the experiment. 7AAD (Sigma, Mo, USA) was added to the samples 5 min prior to FACS analysis.

[1] = Chen Z et al., 1997; cited from earlier work
[2] = molecular target: IgE from the sera of latex allergic, Hev b 6 sensitised subjects; test: inhibition ELISA of IgE binding to plate-coated rHev b 6, estimated
[3] = molecular target: serum IgE of latex-allergic subject A8; test: inhibition ELISA of IgE binding to plate-coated rHev b 6, inhibitor at 125 µg/ml (FIG. 8D)
[4] = molecular target: serum IgE of latex-allergic subject A7; test: inhibition ELISA of IgE binding to plate-coated rHev b 6, soluble inhibitor 0.0016-125 µg/ml (FIG. 8B)
[5] = molecular target: serum IgE of latex-allergic subject A6; test: inhibition ELISA of IgE binding to plate-coated rHev b 6, soluble inhibitor 0.0016-125 µg/ml (FIG. 8C)
[6] = molecular target: serum IgE of a latex-allergic, Hev b 5 positive subject; test: non-specific inhibition ELISA: serum preincubated with inhibitor, IgE binding to rHev b 5 read (data not shown)
[7] = molecular target: IgE from the sera of latex allergic, Hev b 6 sensitised subjects; test: inhibition ELISA of IgE binding to plate-coated rHev b 6, ratio of the 30% inhibition concentrations

Q: Which basophil activation (basophils) does the source give for “hevein peptide: 43-mer hevein peptide synthesised according to the prohevein amino acid sequence by Mimotopes (EQCGRQAGGKLCPNNLCCSQWGWCGSTDEYCSPDHNCQSNCKD)” here?
A: negligible

Q: For “Hevein: 4.7 kDa hydrophilic protein which forms the N-terminus of pro-hevein (EQCGRQAGGKLCPNNLCCSQWGWCGSTDEYCSPDHNCQSNCKD)”, which “patients with latex allergy reacting on skin testing” value [1] is on record?
A: 81%

B1: Recombinant Hev b 6 (rHev b 6) (protein, not shown: small tags and cut ends)
chain: EQCGRQAGGKLCPNNLCCSQWGWCGSTDEYCSPDHNCQSNCKDSGEGVGGGSASNVLATYHLYNSQDHGWDLNAASAYCSTWDANKPYSWRSKYGWTAFCGPVGAHGQSSCGKCLSVTNTGTGAKTTVRIVDQCSNGGLDLDVNVFRQLDTDGKGYERGHITVNYQFVDCGDSFNPLFSVMKSSVIN
Q: For B1, which inhibitor concentration giving 30% inhibition of IgE binding [2] is on record?
A: 0.01 µg/mL

Q: What about the percent inhibition [3] of the same molecule?
A: 100%

Q: And the percent inhibition [4]?
A: 100%

Q: What about the percent inhibition [5] of the same molecule?
A: 100%

Q: What about the percent inhibition (non-specific control) [6] of the same molecule?
A: < 20%

B2: mutant rHev b 6 (cysteine to alanine substitution at amino acid 3) (protein, not shown: small tags and cut ends)
chain: EQAGRQAGGKLCPNNLCCSQWGWCGSTDEYCSPDHNCQSNCKDSGEGVGGGSASNVLATYHLYNSQDHGWDLNAASAYCSTWDANKPYSWRSKYGWTAFCGPVGAHGQSSCGKCLSVTNTGTGAKTTVRIVDQCSNGGLDLDVNVFRQLDTDGKGYERGHITVNYQFVDCGDSFNPLFSVMKSSVIN
Q: For B2, which inhibitor concentration giving 30% inhibition of IgE binding [2] is on record?
A: 125 µg/mL

Q: What about the maximum percent inhibition [3] of the same molecule?
A: 32%

Q: What about the fold more inhibitor required than rHev b 6 [7] of the same molecule?
A: 12500 fold

Q: What about the percent inhibition (non-specific control) [6] of the same molecule?
A: < 20%

B3: rHev b 5: recombinant latex allergen Hev b 5 (protein)
chain: ASVEVESAATALPKNETPEVTKAEETKTEEPAAPPASEQETADATPEKEEPTAAPAEPEAPAPETEKAEEVEKIEKTEEPAPEADQTTPEEKPAEPEPVAEEEPKHETKETETEAPAAPAEGEKPAEEEKPITEAAETATTEVPVEKTEE
Q: For B3, which basophil activation (basophils) is on record?
A: negligible
